Source: publication PMC10164081

Legend:
Gαolf (human) = Gαolf (human) (UniProt P38405)
[1] = biological target: purified Ric-8B (peptide-binding thermal shift assay) (mouse) (UniProt Q80XE1); test: differential scanning fluorimetry
purified Ric-8B (peptide-binding thermal shift assay) (mouse), sequence (Q80XE1 1-483): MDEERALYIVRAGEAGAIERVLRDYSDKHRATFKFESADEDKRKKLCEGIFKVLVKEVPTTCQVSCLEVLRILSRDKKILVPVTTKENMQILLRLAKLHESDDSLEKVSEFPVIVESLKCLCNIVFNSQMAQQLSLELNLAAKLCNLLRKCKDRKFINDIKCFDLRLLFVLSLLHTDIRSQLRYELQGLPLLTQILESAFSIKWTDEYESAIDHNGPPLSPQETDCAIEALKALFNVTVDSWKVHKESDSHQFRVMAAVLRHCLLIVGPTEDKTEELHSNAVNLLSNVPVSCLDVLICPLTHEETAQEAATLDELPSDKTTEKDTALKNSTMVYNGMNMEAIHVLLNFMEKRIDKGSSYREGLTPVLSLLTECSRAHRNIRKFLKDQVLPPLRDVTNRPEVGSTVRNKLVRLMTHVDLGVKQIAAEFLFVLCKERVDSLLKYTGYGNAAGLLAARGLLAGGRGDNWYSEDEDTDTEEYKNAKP

Gαolf (human), sequence (P38405 whole entry): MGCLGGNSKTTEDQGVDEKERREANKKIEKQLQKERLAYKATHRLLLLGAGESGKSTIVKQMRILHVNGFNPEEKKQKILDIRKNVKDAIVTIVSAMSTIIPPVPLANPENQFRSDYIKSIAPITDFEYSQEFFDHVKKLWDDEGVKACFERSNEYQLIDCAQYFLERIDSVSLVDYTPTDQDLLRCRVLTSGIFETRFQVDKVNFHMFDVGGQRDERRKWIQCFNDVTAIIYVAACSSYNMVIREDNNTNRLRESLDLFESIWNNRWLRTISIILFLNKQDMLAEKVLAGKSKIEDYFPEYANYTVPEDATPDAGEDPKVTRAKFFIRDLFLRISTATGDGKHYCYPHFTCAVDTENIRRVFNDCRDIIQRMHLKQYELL

Substance: Ric-8B with its ARM7 loop replaced by that of Ric-8A
- folding of the Gαolf-RLuc sensor (luminescence) in RIC-8B knockout HEK293T cells (Gαolf (human)): 10 % decrease

Substance: Gαs C-term amidated peptide
- maximal thermal shift (ΔTm) [1]: 3.3 °C
